In this assay the target is T1, human CD7 (human, UniProt P09564 26-240).
T1 construct: whole, on cells; also called CD7 antigen; CD7 on the surface of Jurkat, Molt4, CCRF-CEM and Hut78 cells
T1 sequence (looked up): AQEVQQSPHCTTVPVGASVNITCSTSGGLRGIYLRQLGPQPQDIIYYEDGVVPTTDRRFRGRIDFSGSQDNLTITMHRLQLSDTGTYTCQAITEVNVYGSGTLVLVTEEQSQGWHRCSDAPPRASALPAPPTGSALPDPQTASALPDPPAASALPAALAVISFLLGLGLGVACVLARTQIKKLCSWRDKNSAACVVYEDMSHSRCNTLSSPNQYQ
As to the kind of experiment: FACS on Jurkat, Molt4, CEM and Hut78 cells that highly express human CD7; antibody at 0.15 µg/100 µl. As to the method:
Binding of the monoclonal antibody HIT7 in Example 1 and the commercialized CD7-6B7 antibody (Biolegend, PE/Cyanine7 anti-human CD7 antibody, clone number CD7-6B7) to CD7 on the surface of Jurkat, Molt4, CCRF-CEM, and Hut78 cells that highly expressed human CD7 was tested by FACS: The antibody was incubated at a concentration of 0.15 μg/100 μl with 2×10⁵ Jurkat, Molt4, CEM, and Hut78 cells respectively at 4° C. in dark for 30 minutes, washed twice with PBS, resuspended by 100 μl, and loaded for FACS test.

B1: monoclonal antibody HIT7 (antibody, V domains shown)
VH: QVQLQESGPGLVKPSQTVSLTCTVTGISITTGNYRWSWIRQFPGNKLEWIGYIYYSGIITYNPSRTSRTTITRDISKNQFFLEMNSLTAEDTATYYCARERGIYYDSLWYFDVWGAGTTVTVSS
VL: DIVLTQSPASLAVSLGQRATISCRASKSVSASGYSYMHWYQQKPGQPPKLLIYLASNLESGVPARFSGSGSGTDFTLNIHPVEEEDAVTYYCQHSRELPYTFGGGTKLEIKR
notes: also called CD7-HIT7 monoclonal antibody; mouse anti-human CD7 monoclonal antibody
For the molecule B1, the binding result is recorded as “binds”.

Values taken from US20250099504A1 (INSTITUTE OF HEMATOLOGY AND BLOOD DISEASES HOSPITAL CHINESE …, published 2025).
